Data on three molecules can be found in patent US20210371492A1 (INNOVATIVE CELLULAR THERAPEUTICS, published 2021).

Where a chain is given by its changes, count along the chain named.

For test [1], the target named is T1, GCC-His fusion protein (recombinant extracellular region of GCC with His tag) (human, UniProt P25092 24-430).
T1 construct: also called GUC2C-His; recombinant GCC extracellular domain
In words: BIAcore (SPR), GCC-His as mobile phase.

The target of test [2] is T1, GCC-His fusion protein (recombinant …). Nature of the test: ELISA, GUC2C-his coat 3ug/ml, antibody titrated, OD490.
Test [3] shares this target. In words: phage-ELISA, Fab phage library screened on GCC-His.

B1: R8C11VH/L4G6VK-mIgG2a (antibody, V domains shown)
VH: QVQLQQWGAGLLKPSETLSLTCAVFGGSFSGYYWSWIRQPPGKGLEWIGEINHRGNINDNPSLKSRVTISVDTSKNQFALKLSSVTAADTAVYYCARERGYSFGNYDHWGQGTLVTVSS
VL: EIVMTQSPATLSVSPGERATLSCRASQTVTRNLAWYQQKPGQAPRLLIYGASTRATGIPARFSGSGSGTEFTLTIGSLQSEDFAVYYCQQYKSWPRSFGQGTNVEIK
notes: Whole antibody with human variable regions and mouse constant regions (pMABG2a, pMABK); also called R8C11+L4G6
For B1, the Kd in test [1] was determined as 11.8 nM. Moreover, in test [2], the “EC50 (read off the curve)” value is about 2 nM.

B2: R8C11VH/L3B4VK-mIgG2a (antibody, V domains shown)
VH: B1 VH
VL: B1 VL with S97T
notes: Whole antibody with human variable regions and mouse constant regions (pMABG2a, pMABK); also called R8C11+L3B4
Consider B2, for which, in test [1], the Kd is 11.2 nM.

B3: R7C8+L1E2 (Fab clone from the recombinant human phage antibody library) (Fab, V domains shown)
VH: B1 VH with S102T, F103Y, D107E
VL: B1 VL with T30N, S93T, S97T
B3: in test [3], the binding result is listed as “binds”.
